Experimental data: patent publication US20230295327A1 (KANAPH THERAPEUTICS, published 2023)
Each block holds one binder with its values, some of them ahead of it.

Key:
[1] = target: IL-12 receptor of human T cells (human, UniProt P42701 24-662; Q99665 24-862); assay: cell-based or functional assay
[2] = target: T1, human CD20 on Raji and Ramos cells (human, UniProt P11836 1-297); assay: cell-based or functional assay
T1 sequence (looked up): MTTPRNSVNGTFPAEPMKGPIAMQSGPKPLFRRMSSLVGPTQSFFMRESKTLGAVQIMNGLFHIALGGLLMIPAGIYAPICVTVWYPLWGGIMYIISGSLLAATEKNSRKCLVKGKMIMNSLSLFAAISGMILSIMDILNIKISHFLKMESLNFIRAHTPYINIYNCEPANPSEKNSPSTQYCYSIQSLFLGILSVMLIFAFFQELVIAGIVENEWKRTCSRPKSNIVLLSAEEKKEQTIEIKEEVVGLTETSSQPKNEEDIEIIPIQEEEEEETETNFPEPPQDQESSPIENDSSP

IL-12 receptor of human T cells, sequence (Q99665 24-862, chain 2 of 2, other chains not shown): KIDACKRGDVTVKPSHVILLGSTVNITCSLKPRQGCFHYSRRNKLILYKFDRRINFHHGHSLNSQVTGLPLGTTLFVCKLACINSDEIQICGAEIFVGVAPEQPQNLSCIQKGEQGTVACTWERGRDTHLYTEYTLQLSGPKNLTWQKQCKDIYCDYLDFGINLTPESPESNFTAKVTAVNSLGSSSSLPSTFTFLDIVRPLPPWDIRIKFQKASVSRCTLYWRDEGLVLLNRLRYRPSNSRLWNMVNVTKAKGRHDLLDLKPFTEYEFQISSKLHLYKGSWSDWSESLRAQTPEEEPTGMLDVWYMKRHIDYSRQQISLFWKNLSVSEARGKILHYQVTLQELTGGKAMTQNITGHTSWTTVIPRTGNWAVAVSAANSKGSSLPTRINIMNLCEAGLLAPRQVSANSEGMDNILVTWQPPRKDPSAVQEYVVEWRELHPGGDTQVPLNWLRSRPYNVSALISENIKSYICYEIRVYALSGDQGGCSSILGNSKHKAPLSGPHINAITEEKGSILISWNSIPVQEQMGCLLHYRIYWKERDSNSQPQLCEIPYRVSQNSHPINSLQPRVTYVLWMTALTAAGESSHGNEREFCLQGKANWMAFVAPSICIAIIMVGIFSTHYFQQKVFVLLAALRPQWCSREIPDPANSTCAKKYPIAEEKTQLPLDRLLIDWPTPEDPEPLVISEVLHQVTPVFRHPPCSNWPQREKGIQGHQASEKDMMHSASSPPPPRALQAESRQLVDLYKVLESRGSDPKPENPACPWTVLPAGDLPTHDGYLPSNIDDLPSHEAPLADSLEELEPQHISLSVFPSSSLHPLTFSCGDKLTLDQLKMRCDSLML

p-STAT4 (Tyr693) AlphaLISA in activated human T cells, EC50 [1]: 0.555 ng/mL
B1: T2.01 (anti-hu CD20/hu IL-12, hu IgG1) (bispecific antibody)
heavy: not shown
light: QIVLSQSPAILSASPGEKVTMTCRASSSVSYIHWFQQKPGSSPKPWIYATSNLASGVPVRFSGSGSGTSYSLTISRVEAEDAATYYCQQWTSNPPTFGGGTKLEIKRTVAAPSVFIFPPSDEQLKSGTASVVCLLNNFYPREAKVQWKVDNALQSGNSQESVTEQDSKDSTYSLSSTLTLSKADYEKHKVYACEVTHQGLSSPVTKSFNRGEC
chain: not shown

p-STAT4 (Tyr693) AlphaLISA in activated human T cells, EC50 [1]: 1.55 ng/mL
B2: T2.02 (anti-hu CD20/hu IL-12 mut1, hu IgG1) (bispecific antibody)
heavy: not shown
light: B1 light
chain: not shown

ADCC Reporter Bioassay on Raji target cells, 50% effective concentration (EC50) [2]: 31100 ng/mL
B3: Rituximab (anti-hu CD20 monoclonal antibody) (antibody, human IgG1, kappa, V domains shown)
VH: QVQLQQPGAELVKPGASVKMSCKASGYTFTSYNMHWVKQTPGRGLEWIGAIYPGNGDTSYNQKFKGKATLTADKSSSTAYMQLSSLTSEDSAVYYCARSTYYGGDWYFNVWGAGTTVTVSA
VL: QIVLSQSPAILSASPGEKVTMTCRASSSVSYIHWFQQKPGSSPKPWIYATSNLASGVPVRFSGSGSGTSYSLTISRVEAEDAATYYCQQWTSNPPTFGGGTKLEIKR
